The results in this text go back to paper PMC2814137, “Crystal Structural and Functional Analysis of the Putative Dipeptidase from Pyrococcus horikoshii OT3” (Journal of Biophysics, 2009).

Series [1] concerns the molecule itself. Description: AUC; sedimentation equilibrium, 20°C, 13 K rpm, three protein concentrations between 0.93 and 0.31 mg/mL, 20 mM Tris pH 8.0, 100 mM NaCl; monomer/dimer.
Substrate in series [2]: CC(C)[C@H](N)C(=O)N1CCC[C@H]1C(=O)O
The series can be described thus: colorimetric ninhydrin prolidase assay. Type of series: biochemical, Pyrococcus horikoshii. The settings on record: 1.2 mM CoCl2, 50 mM MOPS pH 7.0, 100°C, hydrochloride salt.

B1: putative dipeptidase (Phdpd) from Pyrococcus horikoshii OT3 (enzyme, UniProt O58691 1-356, looked up)
chain: MRLEKFIHLLGERGFDGALISPGTNLYYLTGLRLHEVGERLAILAVSAEGDYRFLAPSLYENVVNNFPATFWHDGENPYAKLREILEELGISKGRILIEDTMRADWLIGIMKLGKFTFQPLSSLIKELRMIKDKEEVKMMEHASRIADKVFEEILTWDLIGMKERELALKIELLIRELSDGIAFEPIVASGENAANPHHEPGERKIRKGDIIILDYGARWKGYCSDITRTIGLGELDERLVKIYEVVKDAQESAFKAVREGIKAKDVDSRAREVISKAGYGEYFIHRTGHGLGLDVHEEPYIGPDGEVILKNGMTFTIEPGIYVPGLGGVRIEDDIVVDEGKGRRLTKAERELIIL
notes: putative dipeptidase / X-Pro dipeptidase (prolidase), Project ID PH0974, Pyrococcus horikoshii OT3; No tag is mentioned; the plasmid was made by the 'super-rare-cutter system' (manuscript in preparation); A selenomethionine-labelled crystal was used for MAD phasing only; also called PH0974; X-Pro dipeptidase (prolidase) of Project ID PH0974; source: E. coli BL21-CodonPlus (DE3)-RIL, purified …
On to B1, for which, in series [1], the “stoichiometry N” value is 2. Also, in series [2], the Km is 5.0 mM and the kcat is 541 s⁻¹.
